Substrate in the data set: Nc1ncnc2c1ncn2[C@@H]1O[C@H](CO[P@](=O)(O)O[P@](=O)(O)OC[C@H]2O[C@@H](n3cnc4c(N)ncnc43)[C@H](O)[C@@H]2O)[C@@H](O)[C@H]1O
Put plainly: HPLC of mononucleotide formed, Michaelis-Menten fit. Format: biochemical, Agrobacterium fabrum. To be noted: pH 7.5 (100 mM TRIS/HCl), 1 mM CoCl2, 100 mM KCl, 37°C.

B1: AtCOG1058 (Agrobacterium fabrum str. C58) (protein)
chain: MSNPSSTSSVVTAAMLAIGDELLSGRTKDKNIGHLADVLTMSGIDLKEVRIVADEEESIVEALNALRSRYDYVFTSGGIGPTHDDITADAISAAFGLPCEHDAEALRLLGDMYRVREMEFTEARKRMARMPKGAAHIANPVSVAPGFVIGNVYVMAGVPQVFQAMLDNVMPTLRTGAKVMSQAVRSPYGEGDIGTPLTAIQKAHPETSIGSYPKYDGQRFSTEIVVRARDAGLLKAATEAVAAMIEAIGQEKQLAASKGDATA
notes: stand-alone COG1058 protein cloned from genomic DNA in pET100/D-TOPO; N-terminal His tag; E. coli BL21(DE3); HisTrap purified
The Km is the concentration of substrate that gives half-maximal velocity. By kcat is commonly meant the number of substrate molecules converted per active site and unit of time at saturation. For B1, the Km stood at 210 ± 22 µM and the kcat stood at 5.6 ± 0.7 s⁻¹.

These data come from article PMC3680494, “Genomics-Guided Analysis of NAD Recycling Yields Functional Elucidation of COG1058 as a New Family of Pyrophosphatases” (PLoS ONE, 2013).
